Patent publication US20150051149A1 (published 2015)

Columns and labels:
[1] = biological target: DRB*0301 (human, UniProt P01903 26-216); test: HLA competition binding
[2] = biological target: DRB*0701 (human); test: HLA competition binding

MGEVVAATPTSLLIS [N-terminal to BC Loop SEQ ID NO 53]
IC50 [1]: 1000 nM | IC50 [2]: 500 nM

PVQEFTVPGSKSTATISGLK [DE Loop SEQ ID NO 51]
IC50 [2]: > 200000 nM

PTSLLISWDAPAVTVRYYRITYG [BC Loop SEQ ID NO 58]
IC50 [2]: 1000 nM
